Source: patent US20240400686A1 (CITY OF HOPE, published 2024)
Read-outs that look alike come from different tables or passages of the source. Values belong to the binder of their own block, whether it stands above or below them. Where no end group is shown, it is not given here. [ ]: non-standard residue; d: D form. pGlu = O=C1CC[C@@H](C(=O)O)N1

How the values were obtained:
[1] = target: Cyno CD3εδ (cynomolgus monkey); assay: SPR, sensorgrams at 3-100 nM; set-up not given
[2] = target: T1, CD3 epsilon N-terminal peptide (SEQ ID NO:13) (human and cynomolgus monkey (first …)); assay: SPR on a CD3 peptide, concentration series 3-300 nM (sensorgrams in FIG. 25B)
T1 construct: also called CD3 peptide; CD3 epsilon peptide
T1 peptide: [pGlu]DGNEEMGGITQTPYK

[3] = target: T1, CD3 epsilon N-terminal peptide (SEQ ID …); assay: SPR on a CD3 peptide, concentration series 3-300 nM
[4] = target: T1, CD3 epsilon N-terminal peptide (SEQ ID …); assay: as above
[5] = target: T1, CD3 epsilon N-terminal peptide (SEQ ID …); assay: SPR on a CD3 peptide, concentration series 3-300 nM (sensorgrams in FIG. 25A)
[6] = target: T1, CD3 epsilon N-terminal peptide (SEQ ID …); assay: SPR on a CD3 peptide, concentration series 3-300 nM
[7] = target: T2, recombinant human CD3epsilon/CD3gamma extracellular domain fused with human IgA1.Fc (human); assay: SPR, Biacore T200: human CD3-IgA immobilised on a CM5 chip, antibody as analyte
T2 construct: also called human CD3e/CD3g proteins; human CD3 proteins
Description: Binding affinities for the different antibodies of interest were measured by surface plasmon resonance (SPR), using a Biacore T200 (GE Healthcare). Human CD3-IgA was immobilized to 200 RU on a CM5 (GE Life Sciences) chip using NHS chemistry. Analytes (CD3 antibodies) were diluted 2× in concentrations (from 12.5 nM to 0.125 nM) and flown over chip at a flow rate of 30 µl/min with HBS-EP+ buffer. Data were analyzed using Biacore T200 Evaluation software v3.0.

Sequence of Cyno CD3εδ (cynomolgus monkey) (Q95LI5 22-117, stated change not applied, chain 1 of 2): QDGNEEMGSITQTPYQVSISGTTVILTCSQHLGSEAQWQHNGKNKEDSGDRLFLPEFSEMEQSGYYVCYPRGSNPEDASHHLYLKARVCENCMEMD
Sequence of Cyno CD3εδ (cynomolgus monkey) (Q95LI8 22-105, stated change not applied, chain 2 of 2, further chain): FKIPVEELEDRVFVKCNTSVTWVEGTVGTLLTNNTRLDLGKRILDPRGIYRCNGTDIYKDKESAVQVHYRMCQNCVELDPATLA

B1: humanized 26H8 Fab (Fab, V domains shown)
VH: QVQLQESGPGLVKPSETLSLTCTASGYTFTNYYIHWVRQSPGKGLEWIGWIYCGDGSTKFNEQFKDRTTLSADHSKTQASLKLSSVTAADTAIYFCARDWAGSYFFDFWGQGTMVTVSS
VL: DIQMTQSPSSLSASVGDRVTITCKSSQSLLNSRTRKNYLAWYQQKPGKAPKLLIYWASTRESGVPSRFSGSGSGTDFTFTISSLQPEDIATYYCKQSYILRTFGGGTKVEIKR
notes: a Fab; also called h26H8 Fab; h26H8
Kd [1]: 36 nM
koff [1]: 0.031 s⁻¹
kon [1]: 870000 M⁻¹ s⁻¹
Kd [2]: 51.6 nM
koff [2]: 0.0322 s⁻¹
kon [2]: 623000 M⁻¹ s⁻¹

B2: H26H8 Fab H35F (Fab, V domains shown)
VH: QVQLQESGPGLVKPSETLSLTCTASGYTFTNYYIFWVRQSPGKGLEWIGWIYCGDGSTKFNEQFKDRTTLSADHSKTQASLKLSSVTAADTAIYFCARDWAGSYFFDFWGQGTMVTVSS
VL: DIQMTQSPSSLSASVGDRVTITCKSSQSLLNSRTRKNYLAWYQQKPGKAPKLLIYWASTRESGVPSRFSGSGSGTDFTFTISSLQPEDIATYYCKQSYILRTFGGGTKVEIKR
notes: Fab' fragment; phenylalanine at position 35 of the heavy chain variable domain; also called h26H8 H35F; h26H8 H35F Fab'
binding result [3]: no binding (tested: 300 nM)

B4: H26H8 Fab C53S (Fab, V domains shown)
VH: QVQLQESGPGLVKPSETLSLTCTASGYTFTNYYIHWVRQSPGKGLEWIGWIYSGDGSTKFNEQFKDRTTLSADHSKTQASLKLSSVTAADTAIYFCARDWAGSYFFDFWGQGTMVTVSS
VL: DIQMTQSPSSLSASVGDRVTITCKSSQSLLNSRTRKNYLAWYQQKPGKAPKLLIYWASTRESGVPSRFSGSGSGTDFTFTISSLQPEDIATYYCKQSYILRTFGGGTKVEIKR
notes: Fab' fragment; serine at position 53 of the heavy chain variable domain; also called h26H8 C53S
Kd [5]: 116 nM
koff [5]: 0.0658 s⁻¹
kon [5]: 569000 M⁻¹ s⁻¹

B5: H26H8 Fab H35Y (Fab, V domains shown)
VH: QVQLQESGPGLVKPSETLSLTCTASGYTFTNYYIYWVRQSPGKGLEWIGWIYCGDGSTKFNEQFKDRTTLSADHSKTQASLKLSSVTAADTAIYFCARDWAGSYFFDFWGQGTMVTVSS
VL: DIQMTQSPSSLSASVGDRVTITCKSSQSLLNSRTRKNYLAWYQQKPGKAPKLLIYWASTRESGVPSRFSGSGSGTDFTFTISSLQPEDIATYYCKQSYILRTFGGGTKVEIKR
notes: Fab' fragment; tyrosine at position 35 of the heavy chain variable domain; also called h26H8 H35Y; h26H8 H35Y Fab'
binding result [6]: no binding (tested: 300 nM)

B7: mouse antibody 26H8 (antibody, V domains shown)
VH: QVQLQQSGPELVKPGASVRMSCKASGYTFTNYYIHWVRQRPGQGLEWIGWIYCGDGSTKFNEQFKDRTTLTADHSSSTAYMLLSSLTSEDSAIYFCARDWAGSYFFDFWGQGTTLTVSS
VL: DIVMSQSPSSLAVSAGEKVTMSCKSSQSLLNSRTRKNYLAWYQQKPGQSPKLLIYWASTRESGVPDRFTGSGSGTDFTLTISSVQAEDLAVYYCKQSYILRTFGGGTKLEIK
notes: Tested as mouse hybridoma antibody (culture supernatant or mAb); also called Clone 26H8; 261H8
koff [7]: 0.00062 s⁻¹
kon [7]: 2.3e+06 M⁻¹ s⁻¹

The remaining lines, values ahead:

binding result [4]: no binding (tested: 300 nM)
B3: H26H8 Fab Y33S (Fab, V domains shown)
VH: QVQLQESGPGLVKPSETLSLTCTASGYTFTNYSIHWVRQSPGKGLEWIGWIYCGDGSTKFNEQFKDRTTLSADHSKTQASLKLSSVTAADTAIYFCARDWAGSYFFDFWGQGTMVTVSS
VL: DIQMTQSPSSLSASVGDRVTITCKSSQSLLNSRTRKNYLAWYQQKPGKAPKLLIYWASTRESGVPSRFSGSGSGTDFTFTISSLQPEDIATYYCKQSYILRTFGGGTKVEIKR
notes: Fab' fragment; serine at position 33 of the heavy chain variable domain; also called h26H8 Y33S; h26H8 Y33S Fab'

koff [7]: 0.0034 s⁻¹
kon [7]: 1.12e+07 M⁻¹ s⁻¹
B6: antibody 3F11 (antibody, V domains shown)
VH: QVQLQQSGPDLVRPGASVKMSCKASGYTFTNYYVHWLNQRPGQGLEWIGWIYPGDGSTKFNEKFKGKTTLTADKSSSTAYILLSSLTSADSAIYFCTRDAGYYFDVWGAGTTVTVSS
VL: DIVMSQSPSSLAVSAGEKVTISCKSSQSLLNNRTRKNYLAWYQQKPGQSPKLLIYWASTRESGVPDRFTGSGSGTDFTLTISSVQAEDLAVYYCKQSYILRTFGGGTKLEIK
notes: Tested as mouse hybridoma antibody (culture supernatant or mAb); also called Clone 3F11
